Test results taken from article PMC7699480.

Legend:
[1] = target: nimotuzumab-SpyTag (human (hG1 in the plasmid's name)); assay: electrophoresis on a bioanalyzer after covalent ligation; nimotuzumab-SpyTag (10 µM) ligated with ∆N-SpyCatcher-DFO (20 µM), 1:1 SpyTag:SpyCatcher; molecular weight of the whole conjugate
IgG-SpyTag = assay: electrophoresis on a bioanalyzer after covalent ligation; time course at 1:1 molar ratio; IgG-SpyTag 10 µM; ∆N-SpyCatcher-DFO kept at RT or heated for 1 h beforehand; reaction stopped by 10-fold dilution and storage at −80 °C; read-out is the share of heavy chain converted
[2] = target: control-IgG-SpyTag (human (hG1 in the plasmid's name)); assay: electrophoresis on a bioanalyzer after covalent ligation; ∆N-SpyCatcher-DFO reacted with IgG-SpyTag at molar ratios 0:1, 1:4, 1:2, 1:1 and 2:1; 1 h, PBS, room temperature; products analysed under reducing conditions; read-out is the share of heavy chain shifted from ~64 kDa to ~81 kDa
[3] = target: nimotuzumab-SpyTag (human (hG1 in the plasmid's name)); assay: as above

Sequence of nimotuzumab-SpyTag (human (hG1 in the plasmid's name)) (heavy, as listed by the source, chain 1 of 2): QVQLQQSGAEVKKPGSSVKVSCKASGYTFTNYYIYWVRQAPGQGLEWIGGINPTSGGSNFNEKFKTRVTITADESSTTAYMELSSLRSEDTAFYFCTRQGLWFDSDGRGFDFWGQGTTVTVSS
Sequence of nimotuzumab-SpyTag (human (hG1 in the plasmid's name)) (light, as listed by the source, chain 2 of 2): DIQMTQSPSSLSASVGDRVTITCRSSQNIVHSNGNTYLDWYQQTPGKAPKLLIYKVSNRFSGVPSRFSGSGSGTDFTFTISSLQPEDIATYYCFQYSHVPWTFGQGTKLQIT

Substance: ∆N-SpyCatcher-DFO (designed binder)
- stoichiometry N [1]: 2
- percent of heavy chain converted (1 min) (IgG-SpyTag): 35%
- percent of heavy chain converted (15 min) (IgG-SpyTag): 94%
- percent of heavy chain converted (stopped reaction) (IgG-SpyTag): 13%
- percent of heavy chain conjugated (SpyCatcher:SpyTag 1:1) [2]: 99%
- percent of heavy chain conjugated (SpyCatcher:SpyTag 1:2) [2]: 50%
- percent of heavy chain conjugated (SpyCatcher:SpyTag 1:4) [2]: 25%
- percent of heavy chain conjugated (SpyCatcher:SpyTag 1:1) [3]: 99%
- percent of heavy chain conjugated (SpyCatcher:SpyTag 1:2) [3]: 50%
- percent of heavy chain conjugated (SpyCatcher:SpyTag 1:4) [3]: 25%
